Results published in publication PMC3951439 (Science (New York, N.Y.), 2013).

Target: PRC2 (Homo sapiens, UniProt Q15910)
Experiment: PRC2 histone methyltransferase assay on nucleosomes
Format: biochemical
Details: peptide titration, µM concentrations; fluorography (Fig. 3E, fig. S3, D and E)

PRC2, sequence (Q15910 whole entry): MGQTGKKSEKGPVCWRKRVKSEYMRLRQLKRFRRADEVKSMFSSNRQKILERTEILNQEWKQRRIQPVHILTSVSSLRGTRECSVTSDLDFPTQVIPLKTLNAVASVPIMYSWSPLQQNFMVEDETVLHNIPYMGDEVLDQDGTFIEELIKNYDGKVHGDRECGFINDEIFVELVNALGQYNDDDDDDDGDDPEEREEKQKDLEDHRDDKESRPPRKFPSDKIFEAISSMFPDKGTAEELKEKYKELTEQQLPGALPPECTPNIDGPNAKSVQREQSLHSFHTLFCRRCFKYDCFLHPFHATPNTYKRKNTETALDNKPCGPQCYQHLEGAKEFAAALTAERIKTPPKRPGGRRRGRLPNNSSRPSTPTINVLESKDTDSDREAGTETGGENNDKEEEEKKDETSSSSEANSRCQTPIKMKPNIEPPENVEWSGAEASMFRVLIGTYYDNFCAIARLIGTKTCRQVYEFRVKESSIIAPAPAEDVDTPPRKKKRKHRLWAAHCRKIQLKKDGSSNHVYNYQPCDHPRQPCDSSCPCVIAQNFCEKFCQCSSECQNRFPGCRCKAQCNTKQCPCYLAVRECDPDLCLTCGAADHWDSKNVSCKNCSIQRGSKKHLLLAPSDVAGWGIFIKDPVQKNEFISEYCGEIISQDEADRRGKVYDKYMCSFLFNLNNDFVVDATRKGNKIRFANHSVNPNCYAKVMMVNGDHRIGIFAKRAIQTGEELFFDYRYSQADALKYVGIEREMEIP
PRC2, sequence (O75530 whole entry partner): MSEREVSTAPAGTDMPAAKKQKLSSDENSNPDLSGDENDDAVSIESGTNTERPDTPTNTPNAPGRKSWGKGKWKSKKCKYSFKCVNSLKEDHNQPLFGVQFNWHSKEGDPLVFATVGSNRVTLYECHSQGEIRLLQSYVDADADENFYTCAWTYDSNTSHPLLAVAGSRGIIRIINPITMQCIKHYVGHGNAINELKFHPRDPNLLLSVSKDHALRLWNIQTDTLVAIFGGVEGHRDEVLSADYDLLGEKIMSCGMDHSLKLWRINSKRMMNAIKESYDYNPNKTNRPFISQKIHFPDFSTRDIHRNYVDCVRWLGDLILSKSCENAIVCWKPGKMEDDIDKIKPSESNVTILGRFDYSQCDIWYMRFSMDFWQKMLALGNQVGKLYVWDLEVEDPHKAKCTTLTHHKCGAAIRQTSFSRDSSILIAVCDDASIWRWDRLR
PRC2, sequence (Q6ZN18 whole entry partner): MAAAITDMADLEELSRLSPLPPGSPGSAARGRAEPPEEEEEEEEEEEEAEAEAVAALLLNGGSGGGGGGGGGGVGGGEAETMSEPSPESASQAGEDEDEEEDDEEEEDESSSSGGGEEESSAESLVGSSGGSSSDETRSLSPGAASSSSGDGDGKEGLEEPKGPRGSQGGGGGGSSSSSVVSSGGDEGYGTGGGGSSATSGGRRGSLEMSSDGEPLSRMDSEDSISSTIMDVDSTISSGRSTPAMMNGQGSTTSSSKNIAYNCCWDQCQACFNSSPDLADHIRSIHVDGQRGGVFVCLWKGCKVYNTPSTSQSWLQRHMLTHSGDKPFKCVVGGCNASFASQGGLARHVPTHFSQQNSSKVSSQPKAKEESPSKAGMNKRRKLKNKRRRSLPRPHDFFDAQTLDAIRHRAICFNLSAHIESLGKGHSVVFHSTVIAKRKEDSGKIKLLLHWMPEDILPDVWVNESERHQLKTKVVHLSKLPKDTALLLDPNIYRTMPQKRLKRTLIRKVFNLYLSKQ
PRC2, sequence (Q15022 whole entry partner): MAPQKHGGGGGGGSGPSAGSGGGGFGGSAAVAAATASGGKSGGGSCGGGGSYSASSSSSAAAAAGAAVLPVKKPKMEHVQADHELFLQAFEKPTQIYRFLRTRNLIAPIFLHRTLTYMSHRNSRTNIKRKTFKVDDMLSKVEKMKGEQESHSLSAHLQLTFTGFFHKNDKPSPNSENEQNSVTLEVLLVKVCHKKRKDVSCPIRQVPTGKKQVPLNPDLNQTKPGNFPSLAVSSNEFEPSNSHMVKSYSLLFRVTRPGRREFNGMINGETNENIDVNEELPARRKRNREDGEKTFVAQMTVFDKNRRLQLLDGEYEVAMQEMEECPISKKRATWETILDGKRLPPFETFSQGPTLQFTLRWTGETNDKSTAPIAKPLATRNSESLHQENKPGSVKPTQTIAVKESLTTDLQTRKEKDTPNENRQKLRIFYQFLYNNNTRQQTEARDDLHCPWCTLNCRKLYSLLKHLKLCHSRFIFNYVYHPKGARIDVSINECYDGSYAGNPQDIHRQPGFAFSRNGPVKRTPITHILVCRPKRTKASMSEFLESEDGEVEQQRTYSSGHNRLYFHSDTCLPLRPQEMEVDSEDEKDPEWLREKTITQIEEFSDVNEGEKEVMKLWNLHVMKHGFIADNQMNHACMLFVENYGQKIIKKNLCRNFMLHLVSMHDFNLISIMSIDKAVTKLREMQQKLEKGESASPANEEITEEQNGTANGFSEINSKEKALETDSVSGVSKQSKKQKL
PRC2, sequence (Q09028 whole entry partner): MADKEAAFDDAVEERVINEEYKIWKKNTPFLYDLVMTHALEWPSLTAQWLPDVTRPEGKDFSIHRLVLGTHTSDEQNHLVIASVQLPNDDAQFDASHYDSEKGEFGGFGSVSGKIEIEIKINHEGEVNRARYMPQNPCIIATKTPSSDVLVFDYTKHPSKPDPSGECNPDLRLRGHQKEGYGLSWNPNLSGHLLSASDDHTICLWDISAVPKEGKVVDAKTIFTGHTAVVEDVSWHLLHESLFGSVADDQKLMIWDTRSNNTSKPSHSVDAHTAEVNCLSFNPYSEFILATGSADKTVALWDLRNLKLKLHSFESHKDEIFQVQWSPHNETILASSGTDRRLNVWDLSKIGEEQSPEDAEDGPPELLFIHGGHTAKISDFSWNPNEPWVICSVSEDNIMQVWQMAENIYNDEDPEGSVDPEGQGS

In the case of “K27ac: H3 peptide (18 to 37) containing K27acetyl”, the “dose-dependent inhibition of PRC2 methyltransferase activity” value is reported as “not the K27ac peptide, could inhibit PRC2-dependent methyltransferase activity in a dose-dependent manner”.
